Reference: patent US20150094219A1

Assays:
[1] = target: thrombin protease (Amersham Biosciences); assay: cell-based or functional assay
[2] = target: GFP^2-RG-RLuc fusion protein (UniProt P27652)
[3] = target: GFP^2-RG-RLuc2 (GTR2) (UniProt P27652)
Chain of GFP^2-RG-RLuc2 (GTR2) (P27652 other isoform, or with tags, fused parts or gaps): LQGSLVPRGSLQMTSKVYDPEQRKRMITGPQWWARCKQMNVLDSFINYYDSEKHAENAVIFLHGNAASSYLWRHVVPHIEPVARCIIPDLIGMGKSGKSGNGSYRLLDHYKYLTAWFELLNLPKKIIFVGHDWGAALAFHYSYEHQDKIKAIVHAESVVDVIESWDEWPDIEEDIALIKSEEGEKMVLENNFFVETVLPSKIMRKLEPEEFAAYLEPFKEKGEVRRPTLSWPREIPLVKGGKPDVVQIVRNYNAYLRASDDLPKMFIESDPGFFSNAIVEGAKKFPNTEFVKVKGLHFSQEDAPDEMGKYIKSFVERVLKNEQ

Chain of GFP^2-RG-RLuc fusion protein (P27652 other isoform, or with tags, fused parts or gaps): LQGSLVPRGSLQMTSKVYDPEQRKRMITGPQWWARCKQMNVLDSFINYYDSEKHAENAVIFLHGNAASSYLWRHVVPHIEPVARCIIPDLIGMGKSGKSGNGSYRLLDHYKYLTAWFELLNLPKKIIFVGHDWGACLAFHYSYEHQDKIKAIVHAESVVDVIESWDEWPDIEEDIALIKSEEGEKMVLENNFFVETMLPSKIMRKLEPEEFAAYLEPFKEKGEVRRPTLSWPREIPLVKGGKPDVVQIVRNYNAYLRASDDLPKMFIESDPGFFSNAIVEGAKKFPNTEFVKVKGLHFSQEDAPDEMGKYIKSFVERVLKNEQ
Chain of Recombinant hirudin from yeast (Sigma) (P01050 whole entry): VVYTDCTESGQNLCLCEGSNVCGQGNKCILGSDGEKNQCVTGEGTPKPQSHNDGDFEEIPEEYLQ

Substance	BRET^H ratio of the sensor with thrombin after pre-addition of hirudin [1]	BRET^H ratio following thrombin cleavage [2]	SDS-PAGE of the sensor after thrombin treatment [2]	bioluminescence spectrum of the sensor after thrombin [2]	change of BRET^2 ratio (GFP/RLuc) at 270 pM thrombin [2] [fold]	decrease in BRET^2 signal, on-chip mixing of 1 µM sensor with 540 nM thrombin and substrate [2]	decrease of the BRET^H ratio following thrombin cleavage [2]	detection limit for thrombin, microchip BRET^H [2] [pM]	detection limit for thrombin, microplate BRET^H [2] [pM]	hybrid BRET ratio following thrombin cleavage [2]	lowest thrombin concentration observable in real time (120 seconds), side-by-side network [2] [nM]	lowest thrombin concentration tested and detected, pancake stack network [2]	thrombin concentration detected easily, pancake stack network (478 second residence time) [2]	upper end of the linear change of BRET^H ratio with thrombin concentration, microfluidic [2]	upper end of the linear change of BRET^H ratio with thrombin concentration, microplate [2]	change of BRET^2 ratio of GTR2 after 2 units of thrombin in diluted milk and orange juice [3]
Recombinant hirudin from yeast (Sigma) (from UniProt P01050 1-65)	1.08	–	–	–	–	–	–	–	–	–	–	–	–	–	–	–
thrombin protease (Amersham Biosciences)	–	from 1.11±0.06 to 0.75±0.04	the fusion protein was cleaved into two components with molecular weights of 32.4 KDa and 36.4 KDa	Upon thrombin cleavage the green component of the spectrum was reduced	10	Approximately 75% decrease in BRET^2 signal	by approximately 32%	27	310	0.79	540	Thrombin was detected down to 14 nM, the lowest concentration tested	27 nM thrombin could be detected easily	up to 0.24 nM for microfluidic measurements	2.7 nM for microplate measurements	Thrombin activity was detected in 1/10 dilutions of milk and orange juice
